Measurements from article PMC6237815, “Structural insights into DNA degradation by human mitochondrial nuclease MGME1”.
Changes are numbered by the printed parent chain.

T1: HsMGME1 H180Q (Homo sapiens, UniProt Q9BQP7 21-344, H180Q)
T1 sequence: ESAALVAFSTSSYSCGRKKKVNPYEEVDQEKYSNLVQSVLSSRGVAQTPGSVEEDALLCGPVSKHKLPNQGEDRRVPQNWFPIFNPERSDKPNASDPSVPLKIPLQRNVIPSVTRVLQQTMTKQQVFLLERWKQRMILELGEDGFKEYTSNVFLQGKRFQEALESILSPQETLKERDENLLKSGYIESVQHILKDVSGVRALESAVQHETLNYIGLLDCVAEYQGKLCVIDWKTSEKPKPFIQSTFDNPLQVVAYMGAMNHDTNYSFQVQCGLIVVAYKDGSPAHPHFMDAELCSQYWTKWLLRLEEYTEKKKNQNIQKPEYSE

T2: HsMGME1 WT (Homo sapiens, UniProt Q9BQP7 21-344)
T2 sequence: T1 sequence with Q160H

B1: DNA3 (mixed)
DNA 1: GGATCCTTCTTCTTCTTC
DNA 2: GGATCCTTCTTCTTCTTC

Key:
HsMGME1 H180Q = target: T1, HsMGME1 H180Q; test: crystal structure; one Ca2+ at A-site; acetate; 30 mM CaCl2 in sample; No solution binding assay; crystals at 18 C, protein 10 mg/ml in 20 mM Tris pH 8.0, 200 mM NaCl, 1 mM DTT, protein:DNA 1:1.2; DNA2: phosphate-citrate pH 4.2, 20% PEG300; H180Q-DNA2-Ca2+: 0.1 M CHES pH 9.5, 20% PEG 8000; DNA3: 0.1 M HEPES pH 7.5, 0.8 M NaH2PO4, 0.8 M K2HPO4; conditions: protein: recombinant; tags: none expected (His-SUMO removed by Ulp1); single strand
HsMGME1 WT [1] = target: T2, HsMGME1 WT; test: crystal structure (1.75 A); CaCl2 in the sample (10 mM), but no Ca2+ bound at the active site; No solution binding assay; crystals at 18 C, protein 10 mg/ml in 20 mM Tris pH 8.0, 200 mM NaCl, 1 mM DTT, protein:DNA 1:1.2; DNA2: phosphate-citrate pH 4.2, 20% PEG300; H180Q-DNA2-Ca2+: 0.1 M CHES pH 9.5, 20% PEG 8000; DNA3: 0.1 M HEPES pH 7.5, 0.8 M NaH2PO4, 0.8 M K2HPO4; conditions: protein: recombinant; tags: none expected (His-SUMO removed by Ulp1); single strand
HsMGME1 WT [2] = target: T2, HsMGME1 WT; test: crystal structure (Se-SAD and native); three of four molecules contact only the 3' overhang, one contacts duplex and overhang; No solution binding assay; crystals at 18 C, protein 10 mg/ml in 20 mM Tris pH 8.0, 200 mM NaCl, 1 mM DTT, protein:DNA 1:1.2; DNA2: phosphate-citrate pH 4.2, 20% PEG300; H180Q-DNA2-Ca2+: 0.1 M CHES pH 9.5, 20% PEG 8000; DNA3: 0.1 M HEPES pH 7.5, 0.8 M NaH2PO4, 0.8 M K2HPO4; conditions: protein: recombinant; tags: none expected (His-SUMO removed by Ulp1); self-complementary 6-bp duplex GGATCC, 3' overhang 12 nt on both strands; 2 copies of the strand

Binder | binding result (HsMGME1 H180Q) | binding result (HsMGME1 WT [1]) | binding result (HsMGME1 WT [2])
AACAACAACAAC (ssDNA) [ssDNA2] | binds | binds | –
B1 | – | – | binds
